# B1: クローン126 (015-126 pIII:抗HER2抗体、ファージpIII融合scFv型抗体) (scFv, part only; not given: CL and pIII fusion parts, part only)
# scFv, part: QVQLVQSGAEVKKPGESLKISCKGSGYSFTSYWIGWVRQMPGKGLEWMGIIYPGDSDTRYSPSFQGQVTISADKSISTAYLQWSSLKASDTAMYYCARLTLSYSSSWFDYWGQGTLVTVSSQTVVTQEPSFSVSPGGTVTLTCGLSSGSVSTSYYPSWYQQTPGQAPRTLIYSTNTRSSGVPDRFSGSILGNKAALTITGAQADDESDYYCVLYMGSGISVFGGGTKLTVL
# What was measured:
# [1] = molecular target: SKOv-3細胞 (卵巣癌細胞株) の細胞表面抗原; test: phage recovery: 1x10^7 phage + 1x10^7 SKOv-3 cells, 4C 4 h, 3 spins through solution (3) Isopropyl Ether:1.1.1-Trichloroethane:Hexane=20:50:30; colonies counted
# [2] = molecular target: SKOv-3細胞 (卵巣癌細胞株) の細胞表面抗原; test: phage recovery: 1x10^7 phage + 1x10^7 SKOv-3 cells, 3 spins through solution (2) Ficoll-Paque diluted 4-fold in PBS; colonies counted
# [3] = molecular target: SKOv-3細胞 (卵巣癌細胞株) の細胞表面抗原; test: phage recovery: 1x10^7 phage + 1x10^7 SKOv-3 cells, 4C 4 h, 3 spins through solution (2) Diphenyl Ether:1.1.1-Trichloroethane:Hexane=44:27:33; colonies counted
# [4] = molecular target: SKOv-3細胞 (卵巣癌細胞株) の細胞表面抗原; test: phage recovery: 1x10^7 phage + 1x10^7 SKOv-3 cells, 4C 4 h, 3 spins through solution (1) 1%BSA-MEM; colonies counted
# [5] = molecular target: SKOv-3膜タンパク (可溶性分画、ダイナビーズ結合); test: phage recovery: Dynabeads with 10 ug SKOv-3 membrane protein + 1x10^8 cfu phage
# [6] = molecular target: SKOv-3細胞 (卵巣癌細胞株) の細胞表面抗原; test: phage recovery: 1x10^7 phage + 1x10^7 SKOv-3 cells, 3 spins through solution (1) 1%BSA-MEM; colonies counted
# [7] = molecular target: SKOv-3膜タンパク (可溶性分画、ダイナビーズ結合); test: phage recovery on SKOv-3 membrane protein beads with 400 ug free HeLa membrane protein present
# [8] = molecular target: SKOv-3膜タンパク (可溶性分画、ダイナビーズ結合); test: phage recovery on SKOv-3 membrane protein beads with 400 ug free SKOv-3 membrane protein as competitor
# [9] = molecular target: SKOv-3膜タンパク (可溶性分画、ダイナビーズ結合); test: phage recovery on SKOv-3 membrane protein beads with 400 ug free SKOv-3 membrane protein against recovery without it
Molecule,回収されたファージの数 [1],回収されたファージの数 [2],回収されたファージの数 [3],回収されたファージの数 [4],回収されたファージ (cfu) [5] [cfu],回収されたファージの数 [6],回収されたファージ (cfu) [7] [cfu],回収されたファージ (cfu) [8] [cfu],回収の変化 (遊離SKOv-3膜タンパク共存 / 非共存) [9] [fold]
pAALSC3-D1.3HL 抗HEL(hen egg lysozyme)抗体ファージ (scFv),198 ファージ数,1040 ファージ数,176 ファージ数,308 ファージ数,11,1040 ファージ数,,,
B1,,,,,87000,,50000,2200,0.025
